Measurements: patent US12528864 (GlaxoSmithKline, dated 2026)

Legend:
[1] = target: T1, cynomolgus monkey CD96, native, on primary cynomolgus monkey T cells (cynomolgus monkey, UniProt A0A2K5TWV6 22-569); experiment: flow cytometry on activated cynomolgus monkey T cells, pooled donor
T1 construct: whole, on cells
T1 sequence: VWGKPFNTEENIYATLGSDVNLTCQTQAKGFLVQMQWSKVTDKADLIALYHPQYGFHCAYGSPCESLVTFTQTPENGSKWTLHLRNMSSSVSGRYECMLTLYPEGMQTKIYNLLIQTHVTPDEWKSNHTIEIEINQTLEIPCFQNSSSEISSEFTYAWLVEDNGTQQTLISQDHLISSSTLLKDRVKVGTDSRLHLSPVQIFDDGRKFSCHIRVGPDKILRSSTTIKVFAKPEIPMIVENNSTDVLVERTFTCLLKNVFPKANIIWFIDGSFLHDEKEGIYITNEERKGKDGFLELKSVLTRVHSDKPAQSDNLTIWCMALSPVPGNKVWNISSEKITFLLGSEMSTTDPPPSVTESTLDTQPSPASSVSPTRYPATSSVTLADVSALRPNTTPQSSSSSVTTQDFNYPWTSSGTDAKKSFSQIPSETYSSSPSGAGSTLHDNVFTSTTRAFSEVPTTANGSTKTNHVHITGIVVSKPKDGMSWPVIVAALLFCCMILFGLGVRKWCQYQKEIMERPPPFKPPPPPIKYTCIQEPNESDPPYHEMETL

[2] = target: T2, human CD96v1 on transiently transfected HEK cells (human, UniProt P40200 22-585); experiment: flow cytometry on transiently transfected HEK cells (Human CD96v1)
T2 construct: whole, on cells
T2 sequence (looked up): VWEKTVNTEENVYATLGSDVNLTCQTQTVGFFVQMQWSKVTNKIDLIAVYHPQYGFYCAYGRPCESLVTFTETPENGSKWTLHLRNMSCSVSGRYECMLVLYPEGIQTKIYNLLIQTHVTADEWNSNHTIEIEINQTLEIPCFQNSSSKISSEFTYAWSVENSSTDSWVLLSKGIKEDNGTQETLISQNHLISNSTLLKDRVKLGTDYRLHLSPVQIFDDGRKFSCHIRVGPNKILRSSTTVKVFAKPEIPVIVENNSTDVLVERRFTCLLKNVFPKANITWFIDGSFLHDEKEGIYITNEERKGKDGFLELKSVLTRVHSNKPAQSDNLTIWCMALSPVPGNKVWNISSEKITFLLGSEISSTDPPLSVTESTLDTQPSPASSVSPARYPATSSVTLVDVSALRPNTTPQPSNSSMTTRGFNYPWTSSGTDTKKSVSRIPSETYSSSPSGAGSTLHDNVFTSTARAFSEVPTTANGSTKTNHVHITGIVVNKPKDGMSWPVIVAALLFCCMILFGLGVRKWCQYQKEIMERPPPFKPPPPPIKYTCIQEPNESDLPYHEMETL

[3] = target: T1, cynomolgus monkey CD96, native, on …; experiment: flow cytometry on activated cynomolgus monkey CD3+ T cells; mean of 3 samples; cynomolgus monkey CD3+ T cells activated with anti-CD2/3/28 beads for 17 days; mean of 3 samples
[4] = target: T3, cynomolgus monkey CD96v2 expressed on cells (CHO cells; transiently transfected HEK cells) (cynomolgus monkey, UniProt A0A2K5TWV6 22-569); experiment: flow cytometry on CHO cells expressing cynomolgus CD96v2
T3 construct: the cell is named under assay; also called CHO-cyCD96; Cyno CD96v2
T3 sequence: T1 sequence

[5] = target: T3, cynomolgus monkey CD96v2 expressed on …; experiment: flow cytometry on transiently transfected HEK cells (Cyno CD96v2)
recombinant human TIGIT = target: T4, recombinant human TIGIT (human, UniProt Q495A1 22-141); experiment: surface plasmon resonance (SPR)
T4 sequence (looked up): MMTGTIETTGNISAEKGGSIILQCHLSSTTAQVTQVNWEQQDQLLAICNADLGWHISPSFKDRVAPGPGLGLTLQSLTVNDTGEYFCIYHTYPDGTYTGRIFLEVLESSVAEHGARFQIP

[6] = target: T5, human CD96v2 expressed on cells (CHO cells; transiently transfected HEK cells) (human, UniProt P40200-2 22-569); experiment: flow cytometry on CHO cells expressing human CD96v2
T5 construct: whole, on cells; the cell is named under assay; also called CHO-huCD96; hCD96v2
T5 sequence (looked up): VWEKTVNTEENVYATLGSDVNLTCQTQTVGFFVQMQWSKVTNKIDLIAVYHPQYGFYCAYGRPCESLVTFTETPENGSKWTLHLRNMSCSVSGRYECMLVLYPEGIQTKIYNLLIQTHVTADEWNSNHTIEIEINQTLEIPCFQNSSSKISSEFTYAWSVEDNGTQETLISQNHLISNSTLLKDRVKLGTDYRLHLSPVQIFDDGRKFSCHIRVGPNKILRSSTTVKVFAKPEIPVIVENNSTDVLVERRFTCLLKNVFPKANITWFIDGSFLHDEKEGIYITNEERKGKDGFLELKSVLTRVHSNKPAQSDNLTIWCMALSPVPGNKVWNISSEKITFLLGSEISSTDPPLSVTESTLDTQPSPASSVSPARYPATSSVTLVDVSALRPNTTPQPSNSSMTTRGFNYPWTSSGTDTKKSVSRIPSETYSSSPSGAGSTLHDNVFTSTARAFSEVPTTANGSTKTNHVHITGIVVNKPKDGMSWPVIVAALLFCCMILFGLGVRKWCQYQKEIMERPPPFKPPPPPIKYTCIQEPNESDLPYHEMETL

[7] = target: T5, human CD96v2 expressed on cells (CHO …); experiment: flow cytometry on transiently transfected HEK cells; upper end of range, n = 3
[8] = target: T3, cynomolgus monkey CD96v2 expressed on …; experiment: as above
[9] = target: T2, human CD96v1 on transiently transfected …; experiment: as above

B1: 42Y073-86F08-66 (antibody)
heavy: not shown
light: DIQLTQSPSSLSASVGDRVTITCRASQSISSYLNWYQQKPGKAPKLLIYAASSLQSGVPSRFSGSGSGTDFTLTISSLQPEDFATYYCQQVLHTITFGGGTKVEIKRTVAAPSVFIFPPSDEQLKSGTASVVCLLNNFYPREAKVQWKVDNALQSGNSQESVTEQDSKDSTYSLSSTLTLSKADYEKHKVYACEVTHQGLSSPVTKSFNRGEC
notes: also called GSK 6097608; GSK6097608
EC50 (read off the curve) [1]: ~0.05 nM
EC50 (read off the curve) [2]: ~7 nM
EC50 [3]: 0.0766 nM
EC50 [4]: 0.02 nM
EC50 (read off the curve) [5]: ~6 nM
binding result (recombinant human TIGIT): no binding
EC50 [6]: 0.05 nM
EC50 [7]: 8.78 nM
EC50 [8]: 11.2 nM
EC50 [9]: 8.89 nM
